Reference: publication PMC8534323

How the values were obtained:
[1] = target: Als3 (agglutinin-like sequence protein 3), isolated from the surface of C. albicans (C. albicans (endogenous in strain ATCC 10231)) (UniProt Q59L12); test: SPR
[2] = target: Phosphoglycerate mutase 1 (Gpm1), recombinant (C. albicans) (UniProt P82612); test: SPR
[3] = target: enolase (Eno1) (C. albicans (endogenous in strain ATCC 10231)) (UniProt P30575); test: SPR
[4] = target: triosephosphate isomerase 1 (Tpi1) (C. albicans (endogenous in strain ATCC 10231)) (UniProt Q9P940); test: SPR
triosephosphate isomerase 1 (Tpi1) (C. albicans (endogenous in strain ATCC 10231)), sequence (Q9P940 whole entry): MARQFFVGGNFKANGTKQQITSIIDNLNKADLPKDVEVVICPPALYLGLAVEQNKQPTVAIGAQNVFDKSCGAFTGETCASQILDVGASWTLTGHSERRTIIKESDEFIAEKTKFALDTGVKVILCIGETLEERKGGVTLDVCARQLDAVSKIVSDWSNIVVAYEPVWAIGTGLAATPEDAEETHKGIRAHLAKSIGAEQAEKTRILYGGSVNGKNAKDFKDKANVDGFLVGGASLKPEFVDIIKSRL

[5] = target: Als3 (agglutinin-like sequence protein 3), isolated from the surface of C. albicans (C. albicans (endogenous in strain ATCC 10231)) (UniProt Q59L12); test: ELISA-like microplate ligand-binding assay; fungal protein immobilised on the microplate, soluble fluorescent-labeled histones; saturation one-site binding model
[6] = target: enolase (Eno1) (C. albicans (endogenous in strain ATCC 10231)) (UniProt P30575); test: as above
[7] = target: Phosphoglycerate mutase 1 (Gpm1), recombinant (C. albicans) (UniProt P82612); test: as above

Phosphoglycerate mutase 1 (Gpm1), recombinant (C. albicans), sequence (P82612 whole entry): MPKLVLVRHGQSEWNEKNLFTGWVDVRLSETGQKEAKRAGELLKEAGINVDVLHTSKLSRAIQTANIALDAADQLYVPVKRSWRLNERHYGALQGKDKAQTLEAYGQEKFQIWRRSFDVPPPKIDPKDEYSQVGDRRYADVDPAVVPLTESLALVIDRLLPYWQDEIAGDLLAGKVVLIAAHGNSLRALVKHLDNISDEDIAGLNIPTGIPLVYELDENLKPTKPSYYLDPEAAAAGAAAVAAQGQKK

Substance | Kd [1] | Kd [2] | Kd [3] | Kd [4] | Kd [5] | Kd [6] | also measured
LL-37(7)Cit (peptide) | – | – | – | – | – | – | decrease of binding against native LL-37 [1]: 50%; loss of binding against native LL-37 [2]: 75%; decrease of binding against native LL-37 [3]: 50%
cathelicidin-derived peptide LL-37 | 228 nM | 598 nM | 14.6 nM | 68.3 nM | – | – | –
histone H2 (from UniProt P0C0S8 1-130) (natural protein) | – | – | – | – | 1790 nM | 911 nM | –
histone H3 (from UniProt P68431 1-136) (natural protein) | – | – | – | – | 23.4 nM | 1230 nM | Kd [7]: 258 nM
lactotransferrin (LF) (from UniProt P02788 20-710) (natural protein) | 85.9 nM | – | – | – | – | – | –
myeloperoxidase (MPO) (enzyme) | 11.6 nM | 353 nM | 78.7 nM | 45 nM | – | – | –
